Square brackets hold non-standard residues; d marks the D form. Ends that are not written are not given here.

In one assay the target is T1, mouse ADAMTS7 (Mus musculus, UniProt Q68SA9).
T1 construct: Full-length mouse Adamts7 1-1857 (Uniprot Q68SA9, WT or E373Q catalytic mutant); expressed in transfected cells; host or cells: Human Coronary Artery Smooth Muscle Cells (HCA-SMC, Lonza), adenovirus 50 MOI
T1 sequence (Q68SA9 221-1657): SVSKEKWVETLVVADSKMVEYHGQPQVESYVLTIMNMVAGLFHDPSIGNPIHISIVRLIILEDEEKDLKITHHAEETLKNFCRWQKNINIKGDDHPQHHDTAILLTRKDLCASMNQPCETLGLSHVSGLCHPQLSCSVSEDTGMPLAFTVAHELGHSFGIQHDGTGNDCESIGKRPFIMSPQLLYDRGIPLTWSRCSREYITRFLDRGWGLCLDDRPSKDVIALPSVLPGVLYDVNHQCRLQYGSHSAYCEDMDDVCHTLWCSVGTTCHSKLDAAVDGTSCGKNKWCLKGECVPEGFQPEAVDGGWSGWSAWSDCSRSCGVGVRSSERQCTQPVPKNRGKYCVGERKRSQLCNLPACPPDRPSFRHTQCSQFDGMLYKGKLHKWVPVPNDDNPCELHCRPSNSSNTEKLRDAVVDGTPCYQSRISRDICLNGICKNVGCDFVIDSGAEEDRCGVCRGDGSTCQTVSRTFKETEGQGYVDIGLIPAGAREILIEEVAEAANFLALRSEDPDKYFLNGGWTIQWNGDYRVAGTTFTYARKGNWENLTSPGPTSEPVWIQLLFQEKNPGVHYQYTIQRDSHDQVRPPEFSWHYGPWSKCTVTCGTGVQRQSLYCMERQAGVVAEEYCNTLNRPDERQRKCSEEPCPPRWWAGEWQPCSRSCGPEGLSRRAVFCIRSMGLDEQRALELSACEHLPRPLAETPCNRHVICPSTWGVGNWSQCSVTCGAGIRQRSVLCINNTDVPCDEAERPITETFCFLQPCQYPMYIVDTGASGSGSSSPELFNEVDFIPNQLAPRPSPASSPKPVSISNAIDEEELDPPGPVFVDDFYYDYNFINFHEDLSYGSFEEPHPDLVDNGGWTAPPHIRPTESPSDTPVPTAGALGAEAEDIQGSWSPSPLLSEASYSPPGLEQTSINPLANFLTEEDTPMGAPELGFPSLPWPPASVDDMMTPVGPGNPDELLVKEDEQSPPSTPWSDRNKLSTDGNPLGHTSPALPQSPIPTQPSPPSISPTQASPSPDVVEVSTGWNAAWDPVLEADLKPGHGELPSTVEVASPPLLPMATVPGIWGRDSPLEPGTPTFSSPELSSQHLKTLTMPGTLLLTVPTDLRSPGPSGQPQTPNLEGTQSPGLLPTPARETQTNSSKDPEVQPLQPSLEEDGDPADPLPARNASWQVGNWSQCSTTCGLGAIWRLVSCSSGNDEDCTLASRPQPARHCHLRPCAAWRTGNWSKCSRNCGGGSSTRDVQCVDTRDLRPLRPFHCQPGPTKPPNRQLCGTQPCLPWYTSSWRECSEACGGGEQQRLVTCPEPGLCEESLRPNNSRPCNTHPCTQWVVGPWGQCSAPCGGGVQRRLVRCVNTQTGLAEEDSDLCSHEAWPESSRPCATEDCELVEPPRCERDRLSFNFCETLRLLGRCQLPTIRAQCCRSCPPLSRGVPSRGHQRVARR
In words: TMT10 TAILS N-terminomics, SMC2 experiment (process replicates, trypsin/AspN digest). The class given is cell-based. As to conditions: SMC2_TAILS HC; log fold change, mWT over Luc. The gist of the method:
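Full-length mouse ADAMTS7 (WT or E373Q mutant, C-terminal 3xFLAG) or luciferase was transduced via adenovirus, 50 MOI, into HCA-SMC (SMC1, SMC2) or HUVEC. SMC1: pooled media, technical triplicates 400 ug; SMC2: process triplicates 300 ug; HUVEC: process triplicates 200 ug, bFGF2 10 ng/ml.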
For the substance “ACTG1_105 (LTEAPLNPKANR; listed as Homo sapiens)”, the logFC.mWT.over.Luc was 1.80.
Still for that read-out and setting: next, “ACTN4_5 (HAANQSYQYGPSSAGNGAGGGGSMG; listed as Homo sapiens)”: 2.65; “ADAM9_74 (GKEHIIHLER; listed as Homo sapiens)”: 4.13; “ADAM10_86 (FKVETSNKVL; listed as Homo sapiens)”: 2.45.
Same read-out and setting: to “ADNP2_375 (SQPVGPVNK; listed as Homo sapiens)” belongs 5.35.
The same measure, in the same setting: next, “AMER2_654 (LAGTTIRATACH; listed as Homo sapiens)”: 0.95; “APLP2_452 (LVETHLAR; listed as Homo sapiens)”: 2.70; “APOA1_86 (EQLGPVTQEFW; listed as Homo sapiens)”: 1.80.
“BMPER_43 (LTGSVAKCENEG; listed as Homo sapiens)”: the logFC.mWT.over.Luc is on record as 2.37.
The same measure, in the same setting: next, “CALU_176 (FTAFLHPEEY; listed as Homo sapiens)”: 2.37.
“CAP1_300 (FSAPKPQTSPSPKR; listed as Homo sapiens)” showed a logFC.mWT.over.Luc of 2.91.
For “CCL2_28 (INAPVTCCYNFTNR; listed as Homo sapiens)”, the logFC.mWT.over.Luc was determined as 1.35.
Same read-out and setting: next, “CEP192_728 (DKSTAGR; listed as Homo sapiens)”: 2.33.
Same read-out and setting: next, “CTSB_109 (WAFGAVEAIS; listed as Homo sapiens)”: 1.65.
“DBN1_434 (APVEPATA; listed as Homo sapiens)”: the logFC.mWT.over.Luc is listed as 1.61.
The same measure, in the same setting: to “DIS3L_75 (FPELKGIIFMQTACQAVQHQR; listed as Homo sapiens)” belongs 1.77; to “ECM1_38 (FQEVGYAAPPSPPLSR; listed as Homo sapiens)”, 1.54.
The same measure, in the same setting: next, “ECM1_44 (AAPPSPPLSR; listed as Homo sapiens)”: 2.25; “ECM1_108 (QEAVPLQK; listed as Homo sapiens)”: 3.12; “EEF1G_23 (QYSGAQVR; listed as Homo sapiens)”: 3.18.
Still for that read-out and setting: to “EIF4B_426 (QTGTSTTSSR; listed as Homo sapiens)” belongs 5.61; to “EMSY_943 (QTVVQVLAVK; listed as Homo sapiens)”, 1.13; to “FBLN2_665 (FSQVASNTIPLPLPQPNTCK; listed as Homo sapiens)”, 1.74.
“FLNA_689 (VNKPAEFTV; listed as Homo sapiens)”: the logFC.mWT.over.Luc amounted to 4.67.
With “FLNC_2649 (FVGQKNSFTV; listed as Homo sapiens)”, the logFC.mWT.over.Luc was 3.91.
Same read-out and setting: to “FN1_35 ([code q]MVQPQSPVAVSQSKPGCY; not fully specified (residue 2); listed as Homo sapiens)” belongs 1.99; to “FN1_99 (DKYTGNTYR; listed as Homo sapiens)”, 1.35; to “FN1_607 (SSSGPVEVFIT; listed as Homo sapiens)”, 1.08.
Same read-out and setting: to “FN1_1693 (LQPTVEYVVSVYAQNPSG; listed as Homo sapiens)” belongs 1.99.
Same read-out and setting: to “FN1_1780 (LQGLRPGSEYTVSVVALH; listed as Homo sapiens)” belongs 1.67; to “FN1_1805 (LIGTQSTAIPAPT; listed as Homo sapiens)”, 2.43; to “FN1_2113 (FVTHPGY; listed as Homo sapiens)”, 1.38.
“FOXG1_235 (LNKCFVKVPRHY; listed as Homo sapiens)”: the logFC.mWT.over.Luc came out at 3.42.
Consider “FSTL_1290 (LQKHQETA; listed as Homo sapiens)”, for which the logFC.mWT.over.Luc is 2.58.
On the same count and under the same terms, next, “HEG1_51 (GLELQLER; listed as Homo sapiens)”: 0.90.
Same read-out and setting: to “HEG1_224 (FQTKSGTAS; listed as Homo sapiens)” belongs 3.54.
In turn, “KCND1_436 (RLAKSGTTNAFLQYKQNGGLE; listed as Homo sapiens)” had a logFC.mWT.over.Luc of 1.60.
Still for that read-out and setting: next, “KRT28_2 (SLQFSNGSR; listed as Homo sapiens)”: 1.88; “LASP1_182 (SYGGYKEPAAPVSIQR; listed as Homo sapiens)”: 0.87.
The same measure, in the same setting: to “LOXL1_157 (SVSASAFASTYR; listed as Homo sapiens)” belongs 2.71; to “LOX_60 (LGSQYQPQR; listed as Homo sapiens)”, 1.25; to “LOX_125 (FQAGYSTSR; listed as Homo sapiens)”, 3.45.

The same assay, now with this note: log fold change, ADAMTS7 WT over luciferase.
Substance “QSOX1_558 (VAAAPELAMGALELESR; listed as Homo sapiens)” gave a logFC.mWT.over.Lux of 0.94.
Turning to “SDC4_106 (LEENEVIPKR; listed as Homo sapiens)”, the logFC.mWT.over.Lux is 1.32.
For “SERPINH1_27 (AAAPGTAEKLSPKAATLAER; listed as Homo sapiens)”, the logFC.mWT.over.Lux came to 2.62.
Same read-out and setting: to “SMOC1_35 (LISDRDPQCNLHCSR; listed as Homo sapiens)” belongs 1.75; to “SPOCK1_126 (HWVGPSNLVK; listed as Homo sapiens)”, 1.29.
In the case of “SRGN_50 (LEEKGPMFELLPGESNKIPR; listed as Homo sapiens)”, the logFC.mWT.over.Lux stood at 3.21.
In turn, “SRGN_51 (EEKGPMFELLPGESNKIPR; listed as Homo sapiens)” had a logFC.mWT.over.Lux of 1.66.
Take “SRGN_60 (LPGESNKIPR; listed as Homo sapiens)”: the logFC.mWT.over.Lux was determined as 3.57.
The same measure, in the same setting: to “SRGN_62 (GESNKIPR; listed as Homo sapiens)” belongs 2.82.
For the substance “STC1_37 (QNSAEVVR; listed as Homo sapiens)”, the logFC.mWT.over.Lux amounted to 4.56.
The substance “STC2_239 (HGEAGHHLPEPSSR; listed as Homo sapiens)” came in with a logFC.mWT.over.Lux of 1.59.
The same measure, in the same setting: to “STC2_244 (HHLPEPSSR; listed as Homo sapiens)” belongs 1.09; to “TGFBI_24 (GPAKSPYQLVLQHSR; listed as Homo sapiens)”, 0.77; to “TGFBI_43 ([code q]HGPNVCAVQKVIGTNR; not fully specified; listed as Homo sapiens)”, 0.85.
For “TGFBI_50 (AVQKVIGTNR; listed as Homo sapiens)”, the logFC.mWT.over.Lux came out at 0.96.
On the same count and under the same terms, next, “TGFBI_208 (GIVTVNCAR; listed as Homo sapiens)”: 0.89; “TGFBI_276 (TLLAPT[code n]EAFEKIPSETLNR; not fully specified; listed as Homo sapiens)”: 0.75.
The same measure, in the same setting: next, “TGFBI_497 (VLTPPMGTVMDVLKGDNR; not fully specified (residue 6); listed as Homo sapiens)”: 0.75.
Still for that read-out and setting: to “TGFBI_524 (SAGLTETLNR; listed as Homo sapiens)” belongs 0.84; to “TGFBI_534 (EGVYTVFAPTNEAFR; listed as Homo sapiens)”, 0.91.

Values taken from patent US20240368668A1, “SUBSTRATES AND BIOMARKERS OF ADAMTS7” (The Broad Institute, Inc., priority 2021, published 2024).
